The assay concerns the target needle protein MxiH (Shigella flexneri) (UniProt P0A223). Kind of assay: co-purification with isolated needles, Western blot. On the technique in general: A western blot detects proteins with antibodies after separation by electrophoresis.
Chain of UniProt P0A223 (P0A223 whole entry): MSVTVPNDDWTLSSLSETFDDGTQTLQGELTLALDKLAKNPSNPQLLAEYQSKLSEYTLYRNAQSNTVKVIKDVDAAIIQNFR

In turn, IpaB (natural protein) registered a % IpaB in needles relative to the complemented strain, in the ipaDL99P strain of 100% and a % IpaB in needles relative to the complemented strain, in the wild-type strain of 70%.

These data come from PMC3575693.
